Read-outs that look alike come from different tables or passages of the source. Each block holds one molecule with its values, some of them ahead of it.
How the values were obtained:
[1] = biological target: activated blood coagulation factor X (FXa) (Homo sapiens, UniProt P00742); conditions: background statement; cited from earlier work
[2] = biological target: human FXa (American Diagnostica Inc.) (human) (UniProt P00742)
[3] = biological target: human FXa (American Diagnostica Inc.) (human) (UniProt P00742); remark: listed apart in the source
[4] = biological target: human FXa (American Diagnostica Inc.) (human) (UniProt P00742); remark: listed apart in the source
[5] = biological target: human FXa (American Diagnostica Inc.) (human) (UniProt P00742); remark: listed apart in the source
[6] = biological target: human FXa (American Diagnostica Inc.) (human) (UniProt P00742); remark: listed apart in the source

Sequence of human FXa (American Diagnostica Inc.) (human) (P00742 41-488 limits assumed): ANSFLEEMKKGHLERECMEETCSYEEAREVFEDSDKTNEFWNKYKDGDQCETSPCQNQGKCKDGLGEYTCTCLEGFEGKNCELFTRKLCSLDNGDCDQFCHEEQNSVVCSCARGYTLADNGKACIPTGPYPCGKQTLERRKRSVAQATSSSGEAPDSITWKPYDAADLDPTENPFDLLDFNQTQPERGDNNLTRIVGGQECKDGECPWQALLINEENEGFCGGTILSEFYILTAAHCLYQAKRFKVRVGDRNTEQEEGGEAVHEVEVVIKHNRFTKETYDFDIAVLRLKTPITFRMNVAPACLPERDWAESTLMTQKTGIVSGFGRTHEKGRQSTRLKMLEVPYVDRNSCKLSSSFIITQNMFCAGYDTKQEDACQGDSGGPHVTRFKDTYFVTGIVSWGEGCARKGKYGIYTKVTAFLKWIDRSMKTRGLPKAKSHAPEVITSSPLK
Sequence of activated blood coagulation factor X (FXa) (P00742 235-488 limits assumed): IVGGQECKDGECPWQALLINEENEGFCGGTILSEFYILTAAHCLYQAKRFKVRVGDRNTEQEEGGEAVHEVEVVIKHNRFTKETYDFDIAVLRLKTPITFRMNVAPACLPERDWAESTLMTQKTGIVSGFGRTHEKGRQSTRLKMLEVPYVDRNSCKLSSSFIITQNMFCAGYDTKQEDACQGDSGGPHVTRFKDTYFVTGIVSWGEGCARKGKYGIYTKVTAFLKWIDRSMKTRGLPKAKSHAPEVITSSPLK
Sequence of activated blood coagulation factor X (FXa) (P00742 41-179 partner limits assumed): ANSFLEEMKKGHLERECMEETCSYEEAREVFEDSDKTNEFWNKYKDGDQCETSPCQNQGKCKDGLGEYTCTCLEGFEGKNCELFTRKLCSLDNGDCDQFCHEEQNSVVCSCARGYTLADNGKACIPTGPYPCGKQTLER

human FXa-inhibiting activity (substrate S-2222, residual FXa activity) (times higher than polypeptide AN68) [4]: 3
Molecule: AACNLPIVEGPCRAFIQLWAFDAVKGKCVLFPYGGCQGNGNKFESEK [polypeptide R11E/Y46E]

human FXa-inhibiting activity (substrate S-2222, residual FXa activity) (times higher than polypeptide AN68) [6]: 10
Molecule: AACNLPIVRGPCRAFIRLWAFDAVKGKCVLFPYGGCQGNGNKFESEK [polypeptide Q19R/Y46E]

Further lines, the molecule ahead of its results:

B1: urinary trypsin inhibitor (protein, UniProt P02760 206-352, looked up)
Inter-alpha-trypsin inhibitor …: AVLPQEEEGSGGGQLVTEVTKKEDSCQLGYSAGPCMGMTSRYFYNGTSMACETFQYGGCMGNGNNFVTEKECLQTCRTVAACNLPIVRGPCRAFIQLWAFDAVKGKCVLFPYGGCQGNGNKFYSEKECREYCGVPGDGDEELLRFSN
modifications: Inter-alpha-trypsin inhibitor light chain
FXa-inhibiting activity [1]: hardly show such an activity

B2: HI-30: Bikunins (HI-30), natural protease inhibitor (protein, UniProt P02760 206-352, looked up)
Inter-alpha-trypsin inhibitor …: B1 Inter-alpha-trypsin inhibitor …
modifications: Inter-alpha-trypsin inhibitor light chain
FXa-inhibiting activity [1]: hardly show such an activity

Molecule: DDAACNLPIVRGPCRAFIKLWAFDAVKGKCVLFPYGGCQGNGNKFYSEK [polypeptide Q19K]
human FXa-inhibiting activity (substrate S-2222, residual FXa activity) (times higher than polypeptide TN70) [2]: 5

Molecule: AACNLPIVRGPCRAFIRLWAFDAVKGKCVLFPYGGCQGNGNKFYSEK [polypeptide Q19R]
human FXa-inhibiting activity (substrate S-2222, residual FXa activity) (times higher than polypeptide AN68) [3]: 6

Molecule: AACNLPIVRGPCRAFIKLWAFDAVKGKCVLFPYGGCQGNGNKFESEK [polypeptide Q19K/Y46E]
human FXa-inhibiting activity (substrate S-2222, residual FXa activity) (times higher than polypeptide AN68) [5]: 10
